Assay results taken from US20150064134A1.

Columns and labels:
Test in all cases: cell-based or functional assay
PDGFRα(V561D)(h) (human) = PDGFRα(V561D)(h) (human) (UniProt P16234)
ULK2(h) (human) = target: T1, ULK2(h) (human) (UniProt Q8IYT8)
T1 sequence (looked up): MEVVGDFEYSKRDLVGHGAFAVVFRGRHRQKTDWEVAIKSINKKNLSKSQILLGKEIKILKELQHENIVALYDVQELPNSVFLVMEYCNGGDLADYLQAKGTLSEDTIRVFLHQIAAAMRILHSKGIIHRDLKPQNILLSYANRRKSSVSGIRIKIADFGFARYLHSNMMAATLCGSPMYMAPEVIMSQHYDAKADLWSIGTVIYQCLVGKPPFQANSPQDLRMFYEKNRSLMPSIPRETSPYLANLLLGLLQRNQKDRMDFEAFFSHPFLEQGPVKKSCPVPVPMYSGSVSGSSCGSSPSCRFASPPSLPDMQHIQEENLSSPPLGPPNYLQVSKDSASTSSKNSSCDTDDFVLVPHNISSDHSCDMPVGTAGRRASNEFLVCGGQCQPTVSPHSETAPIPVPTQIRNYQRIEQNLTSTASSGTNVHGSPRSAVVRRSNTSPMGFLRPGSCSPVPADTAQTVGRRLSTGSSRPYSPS

LIMK1(h) (human) = LIMK1(h) (human) (UniProt P53667)
cKit(V654A)(h) (human) = cKit(V654A)(h) (human) (UniProt P10721)
ARK5(h) (human) = target: T2, ARK5(h) (human) (UniProt O60285)
T2 sequence (looked up): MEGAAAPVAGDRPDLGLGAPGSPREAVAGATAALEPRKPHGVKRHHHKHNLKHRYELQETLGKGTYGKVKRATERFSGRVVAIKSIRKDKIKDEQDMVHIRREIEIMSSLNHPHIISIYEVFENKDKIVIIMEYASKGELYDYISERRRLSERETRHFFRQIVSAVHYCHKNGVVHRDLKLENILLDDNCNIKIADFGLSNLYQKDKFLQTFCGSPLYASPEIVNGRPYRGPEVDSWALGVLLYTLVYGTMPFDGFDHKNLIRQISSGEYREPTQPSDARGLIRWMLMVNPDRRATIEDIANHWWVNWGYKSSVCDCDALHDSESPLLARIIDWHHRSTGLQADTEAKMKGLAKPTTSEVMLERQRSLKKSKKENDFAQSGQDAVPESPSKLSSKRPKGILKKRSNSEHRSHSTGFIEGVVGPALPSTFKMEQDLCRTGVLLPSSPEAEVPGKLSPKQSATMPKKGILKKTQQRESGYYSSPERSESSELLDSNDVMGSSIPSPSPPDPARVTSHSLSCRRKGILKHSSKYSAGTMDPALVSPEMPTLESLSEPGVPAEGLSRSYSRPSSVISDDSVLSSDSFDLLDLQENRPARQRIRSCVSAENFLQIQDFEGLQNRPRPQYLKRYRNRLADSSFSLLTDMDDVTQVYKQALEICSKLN

AMPKα2(h) (human) = AMPKα2(h) (human) (UniProt P54646)
MST2(h) (human) = target: T3, MST2(h) (human) (UniProt Q13188)
T3 sequence (looked up): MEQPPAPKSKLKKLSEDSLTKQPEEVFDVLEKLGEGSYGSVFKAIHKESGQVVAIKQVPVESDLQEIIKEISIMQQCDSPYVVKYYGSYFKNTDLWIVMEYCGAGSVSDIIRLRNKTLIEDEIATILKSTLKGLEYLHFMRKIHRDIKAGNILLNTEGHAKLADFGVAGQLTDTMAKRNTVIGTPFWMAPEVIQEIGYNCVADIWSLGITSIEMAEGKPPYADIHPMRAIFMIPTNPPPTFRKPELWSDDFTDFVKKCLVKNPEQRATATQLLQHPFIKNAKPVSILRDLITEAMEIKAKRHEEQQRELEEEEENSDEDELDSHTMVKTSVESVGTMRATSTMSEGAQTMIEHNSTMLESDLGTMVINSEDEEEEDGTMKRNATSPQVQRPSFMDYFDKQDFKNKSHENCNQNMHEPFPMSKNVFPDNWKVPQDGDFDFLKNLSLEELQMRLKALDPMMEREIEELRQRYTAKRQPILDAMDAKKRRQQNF

Txk(h) (human) = target: T4, Txk(h) (human) (UniProt P42681)
T4 sequence (looked up): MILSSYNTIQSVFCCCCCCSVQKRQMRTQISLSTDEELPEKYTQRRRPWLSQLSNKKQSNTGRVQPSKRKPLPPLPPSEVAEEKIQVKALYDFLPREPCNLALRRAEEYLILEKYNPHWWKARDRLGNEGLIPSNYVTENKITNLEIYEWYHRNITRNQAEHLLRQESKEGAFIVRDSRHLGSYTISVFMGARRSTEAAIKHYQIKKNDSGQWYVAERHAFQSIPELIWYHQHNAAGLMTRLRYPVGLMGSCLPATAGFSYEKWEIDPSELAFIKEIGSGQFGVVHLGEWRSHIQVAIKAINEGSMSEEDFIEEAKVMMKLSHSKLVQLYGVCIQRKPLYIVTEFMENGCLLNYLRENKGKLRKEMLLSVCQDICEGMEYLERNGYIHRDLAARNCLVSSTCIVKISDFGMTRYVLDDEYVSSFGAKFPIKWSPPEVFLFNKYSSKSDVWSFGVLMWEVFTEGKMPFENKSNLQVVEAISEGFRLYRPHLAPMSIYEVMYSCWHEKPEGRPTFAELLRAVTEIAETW

NEK2(h) (human) = target: T5, NEK2(h) (human) (UniProt P51955)
T5 sequence (looked up): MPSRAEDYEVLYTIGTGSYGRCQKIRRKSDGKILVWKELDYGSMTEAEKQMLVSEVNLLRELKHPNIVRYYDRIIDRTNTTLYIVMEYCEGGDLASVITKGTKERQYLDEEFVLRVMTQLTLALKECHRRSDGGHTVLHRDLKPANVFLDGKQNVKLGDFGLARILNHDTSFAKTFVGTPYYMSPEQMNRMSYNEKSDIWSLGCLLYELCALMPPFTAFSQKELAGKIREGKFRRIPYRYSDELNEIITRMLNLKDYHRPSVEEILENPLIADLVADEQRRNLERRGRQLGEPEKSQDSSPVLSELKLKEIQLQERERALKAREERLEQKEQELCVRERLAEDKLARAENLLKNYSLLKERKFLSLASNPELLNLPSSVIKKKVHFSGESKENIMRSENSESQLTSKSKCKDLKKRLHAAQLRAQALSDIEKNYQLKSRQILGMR

Ros(h) (human) = Ros(h) (human) (UniProt P08922)
Sequence of Ros(h) (human) (P08922 1883-2347 limits assumed): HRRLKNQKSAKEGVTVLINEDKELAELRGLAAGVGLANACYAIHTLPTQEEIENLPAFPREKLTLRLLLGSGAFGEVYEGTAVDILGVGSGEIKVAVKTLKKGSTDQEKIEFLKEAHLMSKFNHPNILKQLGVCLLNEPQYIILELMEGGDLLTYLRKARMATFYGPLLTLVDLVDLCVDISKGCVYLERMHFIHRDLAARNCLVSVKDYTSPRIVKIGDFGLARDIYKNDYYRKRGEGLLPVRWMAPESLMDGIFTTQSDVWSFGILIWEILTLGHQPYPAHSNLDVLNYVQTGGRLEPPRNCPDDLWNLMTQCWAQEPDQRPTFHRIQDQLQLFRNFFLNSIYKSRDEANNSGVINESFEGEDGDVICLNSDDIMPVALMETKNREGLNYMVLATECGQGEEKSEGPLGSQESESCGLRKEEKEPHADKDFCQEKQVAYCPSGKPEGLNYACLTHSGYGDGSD

Sequence of PDGFRα(V561D)(h) (human) (P16234 550-1089 V561D limits assumed): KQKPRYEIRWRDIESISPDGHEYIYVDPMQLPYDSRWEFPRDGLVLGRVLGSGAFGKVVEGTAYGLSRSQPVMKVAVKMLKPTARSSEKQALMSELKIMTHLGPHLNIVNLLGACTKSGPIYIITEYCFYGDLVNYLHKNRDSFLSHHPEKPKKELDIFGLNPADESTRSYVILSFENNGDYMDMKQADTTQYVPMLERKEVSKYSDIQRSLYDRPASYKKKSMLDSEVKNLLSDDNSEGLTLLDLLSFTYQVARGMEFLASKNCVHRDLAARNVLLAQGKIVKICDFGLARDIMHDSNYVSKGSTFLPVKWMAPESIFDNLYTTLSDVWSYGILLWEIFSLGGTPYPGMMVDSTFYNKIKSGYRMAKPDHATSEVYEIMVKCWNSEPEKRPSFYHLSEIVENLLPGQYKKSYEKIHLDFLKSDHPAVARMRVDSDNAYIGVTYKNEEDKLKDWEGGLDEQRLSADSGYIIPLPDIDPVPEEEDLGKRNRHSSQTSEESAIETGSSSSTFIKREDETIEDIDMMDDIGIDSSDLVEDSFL
Sequence of cKit(V654A)(h) (human) (P10721 544-976 V654A): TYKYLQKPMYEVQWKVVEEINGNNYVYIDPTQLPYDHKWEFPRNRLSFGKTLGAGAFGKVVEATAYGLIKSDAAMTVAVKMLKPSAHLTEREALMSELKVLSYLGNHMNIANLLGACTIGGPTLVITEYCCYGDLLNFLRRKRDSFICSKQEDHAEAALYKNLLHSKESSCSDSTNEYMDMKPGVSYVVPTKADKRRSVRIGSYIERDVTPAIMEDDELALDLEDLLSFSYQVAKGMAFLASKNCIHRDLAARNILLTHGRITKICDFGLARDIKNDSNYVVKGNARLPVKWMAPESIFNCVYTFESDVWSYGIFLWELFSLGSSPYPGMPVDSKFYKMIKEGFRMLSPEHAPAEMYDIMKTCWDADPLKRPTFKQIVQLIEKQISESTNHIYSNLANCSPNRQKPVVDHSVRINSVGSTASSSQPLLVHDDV

| % activity at 100 µM (PDGFRα(V561D)(h) (human)) [%] | % activity at 100 µM (ULK2(h) (human)) [%] | % activity at 100 µM (LIMK1(h) (human)) [%] | % activity at 100 µM (cKit(V654A)(h) (human)) [%] | % activity at 100 µM (ARK5(h) (human)) [%] | % activity at 100 µM (AMPKα2(h) (human)) [%] | % activity at 100 µM (MST2(h) (human)) [%] | % activity at 100 µM (Txk(h) (human)) [%] | % activity at 100 µM (NEK2(h) (human)) [%] | % activity at 100 µM (Ros(h) (human)) [%] | Substance |
| --- | --- | --- | --- | --- | --- | --- | --- | --- | --- | --- |
| 100 | 131 | 92 | 150 | 69 | 58 | 11 | 37 | 61 | 99 | MMI-0400 (peptide) |
| 146 | 124 | 87 | 223 | 20 | 9 | 2 | 10 | 0 | 150 | MMI-0500 (peptide) |
| 82 | 122 | 88 | 134 | 78 | 54 | 19 | 48 | 78 | 95 | MMI-0300 (peptide) |
